Experimental data reported in publication PMC9980132 (bioRxiv, 2023).
Values belong to the molecule of their own block, whether it stands above or below them.

Tests used:
[1] = target: H2AK119Ub nucleosome (non-hydrolyzable, 187 bp Widom 601 DNA) (Xenopus | not stated) (UniProt P0CG48)
[2] = target: T1, BAP1 (full-length human BAP1, residues 1-729) (human, UniProt Q92560 1-729); assay: cryo-EM structure
T1 sequence: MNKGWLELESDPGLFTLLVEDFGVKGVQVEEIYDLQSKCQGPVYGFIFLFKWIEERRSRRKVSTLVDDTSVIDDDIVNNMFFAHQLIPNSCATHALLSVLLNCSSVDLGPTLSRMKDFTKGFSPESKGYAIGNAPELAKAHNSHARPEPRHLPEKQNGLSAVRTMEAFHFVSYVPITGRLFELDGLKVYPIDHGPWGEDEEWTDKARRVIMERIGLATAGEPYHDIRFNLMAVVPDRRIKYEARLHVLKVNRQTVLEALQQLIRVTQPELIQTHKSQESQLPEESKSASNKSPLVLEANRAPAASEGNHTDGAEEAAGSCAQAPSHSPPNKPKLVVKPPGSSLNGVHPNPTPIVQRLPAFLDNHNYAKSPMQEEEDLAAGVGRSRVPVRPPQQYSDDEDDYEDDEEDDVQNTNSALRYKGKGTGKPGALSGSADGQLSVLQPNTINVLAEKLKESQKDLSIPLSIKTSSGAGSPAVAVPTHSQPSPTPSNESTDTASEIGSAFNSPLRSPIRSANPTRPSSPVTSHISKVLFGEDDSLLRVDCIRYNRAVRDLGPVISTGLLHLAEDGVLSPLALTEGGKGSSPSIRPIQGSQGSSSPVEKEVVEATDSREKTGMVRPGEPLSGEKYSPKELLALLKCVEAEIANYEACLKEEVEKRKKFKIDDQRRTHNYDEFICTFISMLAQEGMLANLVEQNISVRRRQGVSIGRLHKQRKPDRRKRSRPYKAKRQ

Sequence of H2AK119Ub nucleosome (non-hydrolyzable, 187 bp Widom 601 DNA) (Xenopus | not stated) (P0CG48 whole entry, looked up, the tested form may be a part): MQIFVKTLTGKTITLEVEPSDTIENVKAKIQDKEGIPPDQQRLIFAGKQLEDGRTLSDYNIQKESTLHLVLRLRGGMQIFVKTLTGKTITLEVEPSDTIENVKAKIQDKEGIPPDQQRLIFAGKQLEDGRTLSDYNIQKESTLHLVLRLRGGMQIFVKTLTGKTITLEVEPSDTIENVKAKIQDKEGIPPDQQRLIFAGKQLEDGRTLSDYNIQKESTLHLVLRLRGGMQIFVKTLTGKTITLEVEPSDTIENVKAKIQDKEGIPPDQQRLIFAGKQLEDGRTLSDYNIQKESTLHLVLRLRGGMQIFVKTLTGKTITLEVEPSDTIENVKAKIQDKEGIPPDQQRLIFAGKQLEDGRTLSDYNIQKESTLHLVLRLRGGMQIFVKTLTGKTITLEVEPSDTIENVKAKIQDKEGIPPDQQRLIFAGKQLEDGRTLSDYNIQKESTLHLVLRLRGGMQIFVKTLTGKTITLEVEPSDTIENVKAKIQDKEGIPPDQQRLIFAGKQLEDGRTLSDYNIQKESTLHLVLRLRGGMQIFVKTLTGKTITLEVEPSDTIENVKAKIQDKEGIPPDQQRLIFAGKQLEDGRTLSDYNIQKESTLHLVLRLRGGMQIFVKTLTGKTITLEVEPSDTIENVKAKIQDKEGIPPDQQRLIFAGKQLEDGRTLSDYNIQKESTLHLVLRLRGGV

kcat (turnover number) of deubiquitination of the H2AK119ub1 designer nucleosome [1]: 0.015 s⁻¹
Molecule: BAP1 R56A/R57A/R59A/R60A in complex with wild-type ASXL1 DEUBAD (from UniProt Q92560;Q8IXJ9)

binding result [2]: binds
B1: ASXL1 DEUBAD domain (residues 237-390) (domain or fragment)
chain: PATGQMKRNRGEEIDFETPGSILVNTNLRALINSRTFHALPSHFQQQLLFLLPEVDRQVGTDGLLRLSSSALNNEFFTHAAQSWRERLADGEFTHEMQVRIRQEMEKEKKVEQWKEKFFEDYYGQKLGLTKEESLQQNVGQEEAEIKSGLCVPG
